We go through two molecules from patent US20240174744A1 (SCIRHOM, published 2024).

Assay [1] addresses T1, hiR1-FL-WT-T7 (human iRhom1 full length wild type C-terminally tagged with 3 consecutive copies of the T7 … (human, UniProt Q96CC6 1-855)).
T1 construct: also called human iRhom1 variant expressed by MEF-DKO-hiR1-FL-WT-T7 cells
T1 sequence: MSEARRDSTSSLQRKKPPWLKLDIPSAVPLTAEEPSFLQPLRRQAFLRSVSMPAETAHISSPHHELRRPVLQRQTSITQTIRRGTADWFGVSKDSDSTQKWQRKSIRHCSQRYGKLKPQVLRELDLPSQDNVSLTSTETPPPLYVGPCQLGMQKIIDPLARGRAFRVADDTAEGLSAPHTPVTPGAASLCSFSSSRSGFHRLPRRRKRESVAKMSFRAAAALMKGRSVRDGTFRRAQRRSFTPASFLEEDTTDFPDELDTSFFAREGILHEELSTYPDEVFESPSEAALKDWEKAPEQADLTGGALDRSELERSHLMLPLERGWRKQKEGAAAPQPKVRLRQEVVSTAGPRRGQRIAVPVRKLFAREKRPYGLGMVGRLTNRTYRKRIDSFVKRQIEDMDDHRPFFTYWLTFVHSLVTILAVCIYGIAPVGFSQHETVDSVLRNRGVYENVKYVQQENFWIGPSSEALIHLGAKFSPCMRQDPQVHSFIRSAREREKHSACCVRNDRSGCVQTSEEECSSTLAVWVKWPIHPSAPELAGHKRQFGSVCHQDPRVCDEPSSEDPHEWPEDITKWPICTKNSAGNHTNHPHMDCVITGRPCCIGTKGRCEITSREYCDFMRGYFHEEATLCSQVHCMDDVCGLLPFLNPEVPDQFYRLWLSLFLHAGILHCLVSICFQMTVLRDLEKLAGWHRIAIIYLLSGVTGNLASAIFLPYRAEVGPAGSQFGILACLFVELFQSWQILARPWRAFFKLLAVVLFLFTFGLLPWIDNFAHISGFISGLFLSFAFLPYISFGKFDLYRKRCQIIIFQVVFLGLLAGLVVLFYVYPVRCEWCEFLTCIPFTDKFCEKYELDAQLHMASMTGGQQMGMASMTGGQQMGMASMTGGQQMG
The experiment in a line: FACS on MEF-DKO-hiR1-FL-WT-T7 cells.

In assay [2] the target is T1, hiR1-FL-WT-T7 (human iRhom1 full length …). Nature of the assay: FACS, MEF-DKO-hiR1-FL-WT-T7 cells.
Assay [3] concerns the target T2, miR2-FL-WT-T7 (mouse iRhom2 full length wild type C-terminally tagged with 3 consecutive copies of the T7 … (mouse, UniProt Q80WQ6 1-827)).
T2 construct: also called mouse iRhom2 variant expressed by MEF-DKO-miR2-FL-WT-T7 cells
T2 sequence: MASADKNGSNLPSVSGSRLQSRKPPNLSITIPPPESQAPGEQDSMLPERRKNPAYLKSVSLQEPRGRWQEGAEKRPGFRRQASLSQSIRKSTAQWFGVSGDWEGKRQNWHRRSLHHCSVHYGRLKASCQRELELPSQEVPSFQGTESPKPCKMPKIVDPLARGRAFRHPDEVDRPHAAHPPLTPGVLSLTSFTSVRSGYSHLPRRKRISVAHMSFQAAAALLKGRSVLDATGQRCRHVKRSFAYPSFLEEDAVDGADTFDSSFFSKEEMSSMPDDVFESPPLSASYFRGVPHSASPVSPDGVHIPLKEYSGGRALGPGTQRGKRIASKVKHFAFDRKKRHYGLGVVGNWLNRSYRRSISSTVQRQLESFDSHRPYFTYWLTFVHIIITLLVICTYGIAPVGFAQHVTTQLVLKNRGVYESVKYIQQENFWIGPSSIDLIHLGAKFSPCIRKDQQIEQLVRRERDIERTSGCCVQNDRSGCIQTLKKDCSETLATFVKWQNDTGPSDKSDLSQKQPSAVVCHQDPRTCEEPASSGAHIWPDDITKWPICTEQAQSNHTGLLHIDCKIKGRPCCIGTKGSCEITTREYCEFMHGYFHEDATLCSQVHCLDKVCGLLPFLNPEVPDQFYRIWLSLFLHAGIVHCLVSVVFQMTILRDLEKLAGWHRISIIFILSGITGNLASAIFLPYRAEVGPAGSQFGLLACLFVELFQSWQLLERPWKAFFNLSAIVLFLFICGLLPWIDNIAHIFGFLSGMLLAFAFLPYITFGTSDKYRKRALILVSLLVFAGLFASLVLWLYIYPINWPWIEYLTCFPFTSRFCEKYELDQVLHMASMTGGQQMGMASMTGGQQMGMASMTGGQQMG
The experiment in a line: FACS, MEF-DKO-miR2-FL-WT-T7 cells. The procedure: In brief, immortalized MEF-DKO-EV control cells, MEF-DKO-hiR2-FL-WT-T7 cells and MEF-DKO-miR2-FL-WT-T7 cells were harvested with 10 mM EDTA in PBS, washed and resuspended in FACS buffer (PBS, 3% FBS, 0.05% sodium azide), and seeded in Nunc U-bottom 96-well plates (Thermo Fisher Scientific, USA) at approximately 3×10⁵ cells per well. To pellet cells and remove supernatants, the plates were centrifuged at 1,500 rpm and 4° C. for 3 minutes. For primary staining, cells were resuspended in 100 μl per well of either FACS buffer alone (controls), mouse monoclonal anti-T7 IgG (Merck Millipore, USA) at 3 μg/ml FACS buffer or the purified antibodies 3, 5, 16, 22, 34, 42, 43, 44, 48, and 50 of the present disclosure also at 3 μg/ml FACS buffer and incubated on ice for 1 hour. Afterwards, plates were centrifuged at 1,500 rpm and 4° C. for 3 minutes and washed twice with 200 μl per well of FACS buffer. For secondary staining, cells were spun down and resuspended in 100 μl per well of PE-conjugated goat anti-mouse IgG F(ab′)2 detection fragment (Dianova, Germany) diluted 1:100 in FACS buffer. Protected from light, the cell suspensions were incubated on ice for 1 hour. […] Finally, cells were resuspended in 150 μl per well of FACS buffer and analyzed using a BD Accuri™ C6 Plus flow cytometer (Becton Dickinson, Germany).

B1: antibody 3 (antibody, V domains shown)
VH: QVTLKESGPGILQPSQTLSLTCSFSGFSLTTFAMGIGWVRQPSGKGLEWLAHIWWDGEKYNNPVLKSRLTISKDTSKNQVFLRIANVDTPDTATYYCARISSIYYIIDNWGQGTSVTVSS
VL: DIVLTQSPATLSVTPGHSVSLSCRASQSISNNLHWYQKKSHESPRLLIKYVSQSISGIPSRFSGSGSGTDFTLSINSVETEDFGMYFCQQSYNWPLTFGAGTKLELK
notes: Mouse IgG, kappa light chain; also called clone #3; purified antibody 3
Take B1: in assay [1], the binding result is “no binding (tested: 3 µg/ml)”.

B2: antibody 48 (antibody, V domains shown)
VH: QVQLQQSGTELVRPGTSVKVSCKASGYAFTNYLIEWVKQRPGQGLEWIGVINPGSGFTKYNEKFKGKATLTADKSSSTVYMHLSSLTSEDSAVYFCARGLYRAMDYWGQGTSVTVSS
VL: DIQMTQSPASQSASLGESVTITCLASQTIATWLAWYQQKPGKSPQLLIYGATTLADGVPSRFSGGGSGTKFSFKISSLQAEDFVSYYCQQLYSTPYTFGGGTKLEIK
notes: Mouse IgG, kappa light chain; also called clone #48; purified antibody 48
Take B2: the binding result in assay [2] and in assay [3] was “no binding (tested: 3 µg/ml)” throughout.
